Experiment: soluble on expression in E. coli; label from the status in PepcDB or PDB records

| Sequence | soluble on expression in E. coli |
| --- | --- |
| MPRDPLIGIVGKPSSGKSTTLNSLTDAGAAVGAFPFTTIEPNQATGYLQVECACSRFGKEDLCKPNYGWCSKGKRHIPIKLLDVAGLVPGAHSGRGLGNKFLDDLRHADALIHVVDVSGTTDAEGKNTRGYDPLNDIEWLQDEIRLWVEGNLKKRWGSIVRKHTATKSSIVDTLQAQFGGYGSHAPMIQKALDRLKGLPPLEKWDDEWITRVVKSFMMEKFPTVLALNKIDHPDADKNVSKIMLKYPDTKAVLTSAVTEVFLRKLKKQGFILYEEGTEFVDTFEDEPDKLKPLDDKILNRIENIRDLVLYRFGSTGVVQVLQAATDILGLIPVYTVKNIQTFTGGNGTNVFRDCFLVKRGTPVGKVARYIMGGEVTIASIETVGGVRVSEESLVEPGKNDILGFKIAPRSA | soluble |
| MDLKSTKKTWKIPSFNQMWGKITSHIGVWFGLEEAERPMRASCSLSMIHHPQLTAVRSSKSSENLHRITTMSPQRIQDVDGSPSTRKPSSSIFTLRRSRNKEKKYKNNGGGGSTKSPISKNGTNEMTQSWHSNHVNGASSGSGSGSTPEHHNKNIFSFLSRQSRSRSNNPSETMSTVPLNKNSPSMPPPPSSNTVADFTHLRRRRPRSAHYDPNTITLPAKEEVTPQDVNDLYKRIDKLGEGSYATVYKCESKLDGSIVALKEIKLQFQEGLPFTAIREASLLRNLRHANIVSLHDIFYQHHQLTFVFEYMKMDLSKYLEQNVYGLDSIDIKLLLFQLLRGLDFCHRKKILHRDLKPQNLLLDEDGVLKLADFGLARAKSVPSRTYSHEVVTLWYRPPDVLMGSTDYSTSLDMWGVGCIFAEICTGAALFPGSKDSHYPGTKDQLDMIFSIRGTPDEKKWPEVKTLPGYTPELFPRYRELSFIAVNPMFTKILKTGQELLGMLLQLRPESRVSAASAMLHPYFASFPREVHLLAPSQSIFRLKELKDLRSL | not soluble |
| MASSYSASAEPARVRALVYGHHGDPAKVVELKNLELAAVRGSDVRVKMLAAPINPSDINMIQGNYGLLPELPAVGGNEGVAQVVAVGSNVTGLKPGDWVIPANAGLGTWRTEAVFSEEALIQVPSDIPLQSAATLGVNPCTAYRMLMDFEQLQPGDSVIQNASNSGVGQAVIQIAAALGLRTINVVRDRPDIQKLSDRLKSLGAEHVITEEELRRPEMKNFFKDMPQPRLALNCVGGKSSTELLRQLARGGTMVTYGGMAKQPVVASVSLLIFKDLKLRGFWLSQWKKDHSPDQFKELILTLCDLIRRGQLTAPACSQVPLQDYQSALEASMKPFISSKQILTM | soluble |
| GPGSMHPRLSGQGVFPRYGGGWMHQFGHVYALQQELLNAEANNWFRAMELWHTARHEGVAMNVSHYTNILRQCVPPTAWEASLMVLKQMRRENIRPDVVGVGCALAACADANRSEEVEKVFSCFSGKLKLDSICYLALIKAKMSRGGYAEALAVGREQDADGVPFLPHTYTHLLEAAEVADDGEMALELARRMSSEQWPVSDRGREALKKLSTRHHWEEVAEYKQFVAVEDHKLSLPPTLPRG | not soluble |
| MSLTKDILILAVETSCDETSVSVIKNGRDILSNTVLSQIESHKRFGGVVPEVASRHHVEGITTTINEALVDADVSMEDIDAIAVTEGPGLIGALLIGVNAAKALAFAYDKPLIPVHHIAGHIYANHIEEPLTFPLIALIVSGGHTELVYMKDHLSFEVIGETRDDAVGEAYDKVARTIGLNYPGGPQVDRLAAEGEDTYSFPRVWLDKDSYDFSFSGLKSAVINQLHNQRQKNIPIIEANVATSFQNSVVEVLTFKAIQACKEYSVQRLIVAGGVASNKGLRQSLADQCKVNDIQLTIPSPKLCTDNAAMIGVAGHSLYQQGRFADLALNGHSNIDLEEYSAEEGHHHHHH | soluble |
| MGSDKIHHHHHHMKDLVYLNYAATSYKKFPATIEALTAYLAENQFMNYGRNAPLLREGLPLLETRQLLADFFQAPSAAQITFTNNATTSLNLALAGILQPGDHVITTMLEHHAVARPLHLLEKERGISVTYVACQKTGLLEVEDIQRAWRTNTKALVMTHASNVLGTILPIEECFQWAQQKGLLTILDAAQTAGFLPIKMTQMAIDVLAFTGHKSLYGLAGIGGLAFSERGAEAVKPLMAGGTGSHSNSFDQPSFLPDKFEAGTLNSLGILSLNSSIKELNKIGLAAIQKHERTLMQNFLNGLSGLPVTILGTKDVAQTVPVVSITLWNQEETIVAQQLAEQYGIMTRAGLHCAPLAHQTAGTLATGTLRFSFGWQTTPEEITWTIHALQELLI | not soluble |
| MSGPTDTSTQPQGFSMTRLRLIGSAVLLSLSSMAMADSASQAEQFLKLVHADKLTVPVYAQVQQMLAQRFAQAKAPESKKAVLERYQAKANAELDRAIGWDKIKPELIKLYTTNFTESELKDLNAFYQSPLGKKVLEKMPRLTAESAQLTQAKLQGAVEPVNKLMADMDKELGVAAPAQKKK | not soluble |
| MEKQKTFHVAVVGATGAVGEQMLNTLEKREFPIGKLTLLSSKRSAGKKLVFKGEEFTVQEATPESFEGVDIALFSAGGSVSKQLAPEAAKRGAIVVDNTSAFRMTENVPLVVPEVNENDLKEHNGIIANPNCSTIQMVVALEPVRQQYGLKRVIVSTYQAVSGAGAAAIEELHEQSQAILNGEEVKANVLPVSGDKKHFPIAFNAIPQIDKFQDNGFTFEEMKMINETKKIMHMPELEVAATCVRLPVVSGHSESVYIEVEKEGVTVEELKSLLANAEGIVLQDNPEEQLYPMPATAVGKNEVFVGRIRKDLNNDKGFHLWVVSDNLLKGAAWNSVQIAERLVKLQLV | not soluble |
| PNIEFFTLKTPDGSELDSVQVTGEDEEKKPMGERKFIITCIARDQNFINWIKDLNYTAKNLGATAISFNYRGVDYSRGLVWTENNLVDDILAQVQRLISLGADPKNICLDGMCIGGAVATIAAAKLHEKG | not soluble |
| MMTRESIDKRAGRRGPNLNIVLTCPECKVYPPKIVERFSEGDVVCALCGLVLSDKLVDTRSEWRTFSNDDHNGDDPSRVGEASNPLLDGNNLSTRIGKGETTDMRFTKELNKAQGKNVMDKKDNEVQAAFAKITMLCDAAELPKIVKDCAKEAYKLCHDEKTLKGKSMESIMAASILIGCRRAEVARTFKEIQSLIHVKTKEFGKTLNIMKNILRGKSEDGFLKIDTDNMSGAQNLTYIPRFCSHLGLPMQVTTSAEYTAKKCKEIKEIAGKSPITIAVVSIYLNILLFQIPITAAKVGQTLQVTEGTIKSGYKILYEHRDKLVDPQLIANGVVSLDNLPGVEKK | soluble |
| GMLPRLCCLEKGPNGYGFHLHGEKGKLGQYIRLVEPGSPAEKAGLLAGDRLVEVNGENVEKETHQQVVSRIRAALNAVRLLVVDPEEDSFL | soluble |
| MYMRAGDGRVHGIYSSTDVANLILKTTGTALMDKKKLHKLLYYMQGWTLAALGRPAFANDLQAWVDGPVSVGMRRDTHYATCFEVANRPLSNPLAPQDRDLLALMYLIAPFYAQQQTQALVDSTHAEAPWLDARGGLPPPMPIPARRSLTTHCTATFHSTPASWV | not soluble |
| MKAVSRVHITPHMHWDREWYFTTEESRILLVNNMEEILCRLEQDNEYKYYVLDGQTAILEDYFAVKPENKDRVKKQVEAGKLIIGPWYTQTDTTIVSAESIVRNLMYGMRDCLAFGEPMKIGYLPDSFGMSGQLPHIYNGFGITRTMFWRGCSERHGTDKTEFLWQSSDGSEVTAQVLPLGYAIGKYLPADENGLRKRLDSYFDVLEKASVTKEILLPNGHDQMPLQQNIFEVMDKLREIYPQRKFVMSRFEEVFEKIEAQRDNLATLKGEFIDGKYMRVHRTIGSTRMDIKIAHARIENKIVNLLEPLATLAWTLGFEYHHGLLEKMWKEILKNHAHDSIGCCSDKVHREIVARFELAEDMADNLIRFYMRKIADNMPQSDADKLVLFNLMPWPREEVINTTVRLRASQFNLRDDRGQPVPYFIRHAREIDPGLIDRQIVHYGNYDPFMEFDIQINQIVPSMGYRTLYIEANQPGNVIAAKSDAEGILENAFWQIALNEDGSLQLVDKDSGVRYDRVLQIEESSDDGDEYDYSPAKEEWVITAANAKPQCDIIHEAWQSRAVIRYDMAVPLNLSERSARQSTGRVGVVLVVTLSHNSRRIDVDINLDNQADDHRLRVLVPTPFNTDSVLADTQFGSLTRPVNDSAMNNWQQEGWKEAPVPVWNMLNYVALQEGRNGMAVFSEGLREFEVIGEEKKTFAITLLRGVGLLGKEDLLLRPGRPSGIKMPVPDSQLRGLLSCRLSLLSYTGTPTAAGVAQQARAWLTPVQCYNKIPWDVMKLNKAGFNVPESYSLLKMPPVGCLISALKKAEDRQEVILRLFNPAESATCDATVAFSREVISCSETMMDEHITTEENQGSNLSGPFLPGQSRTFSYRLA | not soluble |

— the DeepSol protein solubility set
